Data published in US6652861B1, “Anti-HIV and anti-tumor peptides and truncated polypeptides of MAP30” (priority 1999, dated 2003).
Where two headings read alike, the source gives them in different places.

Experiments:
HIV-1 = assay: Anti-HIV activity: viral core protein p24 expression in HIV-1 infected H9 T lymphocytes by RIA; type: cell-based
Description: (§1) In FIG. 3A, anti-HIV activity was assayed by HIV core protein p24 expression in H9 cells (Lee-Huang et al., 1990 and Lee-Huang et al., 1991). […] Anti-tumor activity was determined by in vitro proliferation of human breast tumor MAD-MB-231 cell by [^3H] thymidine incorporation (Lee-Huang et al., 1999) and the average control value was about 1.88×10^5 cpm/ml (FIG. 3B). In FIG. 3C, the cytotoxic effect was measured by the MTS colorimetric assay (Lee-Huang et al., 1999), and in FIG. 3D, the ribosome-inactivation activity was determined by in vitro translation of globin message in a rabbit reticulocyte lysate system (Lee-Huang et al., 1990 and Lee-Huang et al., 1991) and the average control value was about 5.8×10^4 cpm/ml. In each assay, triplicates were carried in two independent experiments, and the results are normalized to values obtained in control assays. Standard deviations are indicated by error bars.
(§2) Anti-HIV activity was determined by inhibition on the expression of viral core protein p24 expression by RIA (Lee-Huang et al., 1990; Lee-Huang et al., 1991 and Lee-Huang et al., 1999). Anti-tumor activity was determined by the effects of the peptide fragments on the growth of human breast tumor cell line MDA-MB-231 by [^3H] thymidine incorporated (Lee-Huang et al., 1999 and Rybak et al., 1994). HIV-integrase inhibition was assayed by the three specific reactions catalyzed by the integrase, namely, 3′ processing (specific cleavage of the dinucleotide GT from the viral substrate HIV-LTR U3), strand transfer (integration) and disintegration (Lee-Huang et al., 1995). Topological inactivation was measured by the conversion of supercoiled HIV-LTR DNA to relaxed and linear forms (Huang et al., 1992). Ribosome inactivation was determined by the translation of globin message in a rabbit reticulocyte lysate system (Lee-Huang et al., 1990 and Lee-Huang et al., 1991).
(§3) To analyze the structural and activity relationship of the anti-HIV proteins, each of the homogeneous proteolytic fragments was assayed for anti-HIV and anti-tumor activities. […] Anti-HIV activity was measured by viral core protein p24 expression in HIV-1 infected H9 T lymphocytes by RIA (Lee-Huang et al., 1990 and Lee-Huang et al., 1991). Anti-tumor activity was measured by proliferation of human breast tumor MDA231 cells (Lee-Huang et al., 1999 and Rybak et al., 1994). […] No significant difference in the anti-HIV and anti-tumor activities was detected between these core fragments.

[1] = tested on: human breast tumor cell line MDA-MB-231; assay: Anti-tumor activity: proliferation of MDA-MB-231 cells by [3H] thymidine incorporation; type: cell-based; details: MDA231 proliferation
Description: as §1, §2, §3

[2] = tested on: ribosome (rabbit reticulocyte lysate system); assay: Ribosome inactivation: translation of globin message in a rabbit reticulocyte lysate system; type: biochemical; details: [3H]-labelled leucine incorporation
Description: as §1, §2
The anti-HIV and anti-tumor fragments, MLF25, MLF21, MVF25, MVF21, GLF26, GLF22, GVF26, GVF22 are active in HIV-integrase inhibition as assayed by the 3′-processing (FIG. 4A), strand transfer and disintegration (data not shown) as well as in DNA topological inactivation as assayed by the conversion of supercoiled HIV-LTR into relaxed and linear forms (FIG. 4B). […] Moreover, the C-terminal regions of these proteins are required for N-glycosidase activity, but not for antiviral and anti-tumor activities.

[3] = tested on: endoproteinase Lys-C and Glu-C (V8); assay: Resistance to limited proteolysis with Lys-C and V8 (SDS-PAGE); details: Lys-C or V8, up to 24 hr
Description: MAP30 and GAP31 were subjected to proteolysis with sequencing grade endoproteinase Lys-C and Glu-C (Promega, Madison, Wis.). Lys-C cleaves at the carboxylic side of lysine (Elliott et al., 1986). Glu-C, also known as V8 protease, cleaves specifically at the carboxylic side of glutamic acid in the presence of ammonium ion (Drapeau et al., 1972). In the absence of ammonium ion, Glu-C acts at both aspartic and glutamic acids. The reaction buffers for Lys-C and V8 were 25 mM Tris-HCl, pH 7.8, 1 mM EDTA and 50 mM ammonium bicarbonate, pH 7.8 respectively.
FIGS. 1A-1D show time course SDS-PAGE patterns of Lys-C and V8 digestions of MAP30 and GAP31. Three major fragments were produced in each case. These fragments are designated MLF25, MLF21, MLF0.8 (MAP30 Lys-C Fragments of 25, 21, and 0.8 kDa, FIG. 1A), MVF25, MVF21, MVF0.8 (MAP30 V8 Fragments of 25, 21, and 0.8 kDa, FIG. 1B), GLF26, GLF22, GLF0.6 (GAP31 Lys-C Fragments of 26, 22 and 0.6 kDa, FIG. 1C), and GVF26, GVF22, GVF0.6 (GAP31 V8 Fragments of 26, 22 and 0.6 kDa, FIG. 1D). The smaller peptides are C-terminal fragments produced during proteolysis and they are sensitive to further digestion to short peptides.

supercoiled HIV-LTR DNA = assay: Topological inactivation: conversion of supercoiled HIV-LTR DNA to relaxed and linear forms; type: biochemical; details: supercoiled HIV-LTR into relaxed and linear forms
Description: (§4) In FIG. 4A, the inhibition on HIV-integrase was assayed by the 3′-processing reaction of HIV-1 integrase (Lee-Huang et al., 1995). This activity was assayed by specific cleavage of the dinucleotide GT from 5′-[^32P] labeled 21-mer of the HIV-U3-LTR substrate. The effect was measured by the inhibition of the formation of labeled 19-mer product by autoradiography of urea gels. […] In FIG. 4B, topological inactivation was measured by the conversion of supercoiled HIV-LTR DNA (S) into relaxed (R) and linear (L) forms by agarose gel electrophoresis (Huang et al., 1992). Samples that cause topological inactivation show L and R and no S forms.
as §2

HIV-1 integrase = target: T1, HIV-1 integrase (Human immunodeficiency virus type 1 group M subtype B, UniProt P04585); assay: HIV-integrase inhibition (3'-processing, strand transfer, disintegration); type: biochemical; details: strand transfer and disintegration
T1 construct: assayed by the 3′-processing reaction of HIV-1 integrase
Description: as §4, §2

In the case of “GLF0.6: GAP31 Lys-C C-terminal fragment, residues 201-251 of SEQ ID NO:2 (LSFQIRTSGANGMFSEAVELERANGKKYYVTAVDQVKPKIALLKFVDKDPK; listed as Gelonium multiflorum)”, the “anti-HIV activity” value (HIV-1) is reported as “neither anti-HIV nor anti-tumor activity”, the “anti-HIV activity” value (HIV-1; listed as peak 3) is reported as “no activity was found” and the “anti-tumor activity” value [1] is reported as “neither anti-HIV nor anti-tumor activity”. For the same molecule, the “anti-tumor activity” value ([1]; listed as peak 3) was “no activity was found”.

“GVF22: GAP31 V8 fragment, 21-22 kDa, residues 1-195 of SEQ ID NO:2” was tested, and the “ribosome inactivation” value [2] was “none of these fragments are active”, the resistance to proteolysis [3] was “remained intact even after 24 hr of proteolysis” and the “DNA topological inactivation” value (supercoiled HIV-LTR DNA) was “active”. The “HIV-integrase inhibition” value (HIV-1 integrase) was “active”.

“GVF0.6: GAP31 V8 C-terminal fragment, residues 196-251 of SEQ ID NO:2 (NKWGKLSFQIRTSGANGMFSEAVELERANGKKYYVTAVDQVKPKIALLKFVDKDPK; listed as Gelonium multiflorum)” was tested, and the “anti-HIV activity” value (HIV-1) was “neither anti-HIV nor anti-tumor activity” and the “anti-tumor activity” value [1] was “neither anti-HIV nor anti-tumor activity”.

“GVF26: GAP31 V8 fragment, 25-26 kDa, residues 1-219 of SEQ ID NO:2” was tested, and the “ribosome inactivation” value [2] was “none of these fragments are active”, the “DNA topological inactivation” value (supercoiled HIV-LTR DNA) was “active” and the “HIV-integrase inhibition” value (HIV-1 integrase) was “active”.

“GLF22: GAP31 Lys-C fragment, 21-22 kDa, residues 11-200 of SEQ ID NO:2” was tested, and the “anti-HIV activity” value (HIV-1) was “Most of the anti-HIV and anti-tumor activity”, the “ribosome inactivation” value [2] was “none of these fragments are active” and the “DNA topological inactivation” value (supercoiled HIV-LTR DNA) was “active”. For the same molecule, the “anti-tumor activity” value [1] was “Most of the anti-HIV and anti-tumor activity” and the “HIV-integrase inhibition” value (HIV-1 integrase) was “active”.

B1: MLF21: MAP30 Lys-C fragment, 20-21 kDa, residues 13-195 of SEQ ID NO:1 (protein, listed as Momordica charantia)
chain: TYTKFIEDFRATLPFSHKVYDIPLLYSTISDSRRFILLDLTSYAYETISVAIDVTNVYVVAYRTRDVSYFFKESPPEAYNILFKGTRKITLPYTGNYENLQTAAHKIRENIDLGLPALSSAITTLFYYNAQSAPSALLVLIQTTAEAARFKYIERHVAKYVATNFKPNLAIISLENQWSALSK
For B1, the “ribosome inactivation” value [2] was “none of these fragments are active”, the “DNA topological inactivation” value (supercoiled HIV-LTR DNA) was “active” and the “HIV-integrase inhibition” value (HIV-1 integrase) was “active”.

B2: MVF21: MAP30 V8 fragment, 20-21 kDa, residues 1-187 of SEQ ID NO:1 (protein, listed as Momordica charantia)
chain: DVNFDLSTATAKTYTKFIEDFRATLPFSHKVYDIPLLYSTISDSRRFILLDLTSYAYETISVAIDVTNVYVVAYRTRDVSYFFKESPPEAYNILFKGTRKITLPYTGNYENLQTAAHKIRENIDLGLPALSSAITTLFYYNAQSAPSALLVLIQTTAEAARFKYIERHVAKYVATNFKPNLAIISLE
For B2, the “ribosome inactivation” value [2] was “none of these fragments are active”, the resistance to proteolysis [3] was “remained intact even after 24 hr of proteolysis” and the “DNA topological inactivation” value (supercoiled HIV-LTR DNA) was “active”. For the same molecule, the “HIV-integrase inhibition” value (HIV-1 integrase) was “active”.

B3: MVF25: MAP30 V8 fragment, 24-25 kDa, residues 1-219 of SEQ ID NO:1 (protein, listed as Momordica charantia)
chain: DVNFDLSTATAKTYTKFIEDFRATLPFSHKVYDIPLLYSTISDSRRFILLDLTSYAYETISVAIDVTNVYVVAYRTRDVSYFFKESPPEAYNILFKGTRKITLPYTGNYENLQTAAHKIRENIDLGLPALSSAITTLFYYNAQSAPSALLVLIQTTAEAARFKYIERHVAKYVATNFKPNLAIISLENQWSALSKQIFLAQNQGGKFRNPVDLIKPTGE
In the case of B3, the “ribosome inactivation” value [2] is reported as “none of these fragments are active”, the “DNA topological inactivation” value (supercoiled HIV-LTR DNA) is reported as “active” and the “HIV-integrase inhibition” value (HIV-1 integrase) is reported as “active”.

B4: MLF25: MAP30 Lys-C fragment, 24-25 kDa, residues 13-232 of SEQ ID NO:1 (protein, listed as Momordica charantia)
chain: TYTKFIEDFRATLPFSHKVYDIPLLYSTISDSRRFILLDLTSYAYETISVAIDVTNVYVVAYRTRDVSYFFKESPPEAYNILFKGTRKITLPYTGNYENLQTAAHKIRENIDLGLPALSSAITTLFYYNAQSAPSALLVLIQTTAEAARFKYIERHVAKYVATNFKPNLAIISLENQWSALSKQIFLAQNQGGKFRNPVDLIKPTGERFQVTNVDSDVVK
For B4, the “ribosome inactivation” value [2] was “none of these fragments are active”, the resistance to proteolysis [3] was “remained intact even after 24 hr of proteolysis” and the “DNA topological inactivation” value (supercoiled HIV-LTR DNA) was “active”. For the same molecule, the “HIV-integrase inhibition” value (HIV-1 integrase) was “active”.

B5: MVF0.8: MAP30 V8 C-terminal fragment, residues 188-263 of SEQ ID NO:1 (protein, listed as Momordica charantia)
chain: NQWSALSKQIFLAQNQGGKFRNPVDLIKPTGERFQVTNVDSDVVKGNIKLLLNSRASTADENFITTMTLLGESVVN
With B5 the “anti-HIV activity” value (HIV-1) was “neither anti-HIV nor anti-tumor activity” and the “anti-tumor activity” value [1] was “neither anti-HIV nor anti-tumor activity”.

B6: MLF0.8: MAP30 Lys-C C-terminal fragment, residues 196-263 of SEQ ID NO:1 (protein, listed as Momordica charantia)
chain: QIFLAQNQGGKFRNPVDLIKPTGERFQVTNVDSDVVKGNIKLLLNSRASTADENFITTMTLLGESVVN
With B6 the “anti-HIV activity” value (HIV-1) was “neither anti-HIV nor anti-tumor activity” and the “anti-tumor activity” value [1] was “neither anti-HIV nor anti-tumor activity”.
